The values below come from paper PMC10987633, “Structural basis for RAD18 regulation by MAGEA4 and its implications for RING ubiquitin ligase binding by MAGE family proteins” (The EMBO Journal, 2024).

Broadly, the Kd is the equilibrium constant for the complex coming apart.

Changes are numbered by the printed parent chain.

To fix the notation:
T1: full-length MAGEA4 M161D (human, UniProt P43358 1-317, M161D)
T1 construct: MAGEA4, human, Uniprot P43358, full length, with M161D; source: E. coli BL21star, purified (TALON, SEC)
T1 sequence (looked up): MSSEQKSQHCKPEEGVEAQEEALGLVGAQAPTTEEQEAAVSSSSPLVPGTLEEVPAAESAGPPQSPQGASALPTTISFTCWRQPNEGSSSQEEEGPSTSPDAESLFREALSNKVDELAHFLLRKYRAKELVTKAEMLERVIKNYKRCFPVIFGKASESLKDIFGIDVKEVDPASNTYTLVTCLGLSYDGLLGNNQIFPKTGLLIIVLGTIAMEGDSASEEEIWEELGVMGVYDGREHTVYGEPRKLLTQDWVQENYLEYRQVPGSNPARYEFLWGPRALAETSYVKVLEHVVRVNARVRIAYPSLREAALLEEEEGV

B1: full-length MAGEA4 wild type (purified) (natural protein, human, UniProt P43358 1-317, looked up)
chain: T1 sequence (looked up) with D161M
notes: MAGEA4, human, Uniprot P43358, full length; Cloned into PET15C; No removal of the His tag is described; the diGly search database lists 'His-tagged MAGEA4'; also called MAGEA4 WT; FL MAGEA4; source: E. coli BL21star, purified (TALON, SEC)
B2: RAD18 R6BD peptide (residues 340-366) (peptide, UniProt Q9NS91 340-366, looked up)
peptide: SKYRKKHKSEFQLLVDQARKGYKKIAG
notes: also called 27 amino acid peptide corresponding to the RAD18 R6BD; source: synthetic peptide, bought: GenScript

Common to all, as to conditions: both partners purified
In test [1] the target is RAD18/RAD6 complex (purified) (human, UniProt Q9NS91 1-495; P63146 1-152, 2:1 RAD18:RAD6 asymmetric dimer as stated; Zn2+ bound (RING, zinc finger); RAD6 paralogue not given, UBE2B inferred from 2YBF). In words: mass photometry; OneMP mass photometer, SEC buffer; RAD18/RAD6, and RAD18/RAD6/MAGEA4 first cross-linked with BS3 (30 min on ice) and separated on an S200 3.2/300 column, peak fraction measured.

The target of test [2] is T2, His-tagged full-length RAD18 wild type (human, UniProt Q9NS91 1-495).
T2 construct: RAD18, RING E3 ubiquitin ligase, human, Uniprot Q9NS91, residues 1-495, full length; Cloned into PET15C; Dimer in the RAD18/RAD6 complex by AUC and mass photometry; also called RAD18 WT; FL RAD18; source: E. coli BL21star; co-expressed with untagged MAGEA4, in cleared lysate (His pull-down); co-expressed with RAD6 and purified as RAD18/RAD6 (TALON, SEC); not shown: His tag, N-terminal, kept
In words: cross-linking; XL-MS of RAD18/RAD6 incubated with 5x molar excess of full-length MAGEA4 for 1 h at 4 °C before BS3; trypsin, LC-MS/MS.

For a further test, the target named is T1, full-length MAGEA4 M161D. In words: ITC; RAD18 R6BD peptide at 200 µM titrated into protein at 20 µM; MicroCal ITC200, 25 °C; SEC buffer (100 mM NaCl, 20 mM HEPES pH 7.5, 1 mM TCEP).
The target of test [3] is RAD6 wild type (purified alone) (human, UniProt P63146 1-152, paralogue not given; UBE2B chosen because the paper's RAD6/R6BD reference structure 2YBF is UBE2B). The description is as above.
Test [4] concerns the target B1. The description is as above.

Chain of RAD18/RAD6 complex (purified) (Q9NS91 whole entry, chain 1 of 2): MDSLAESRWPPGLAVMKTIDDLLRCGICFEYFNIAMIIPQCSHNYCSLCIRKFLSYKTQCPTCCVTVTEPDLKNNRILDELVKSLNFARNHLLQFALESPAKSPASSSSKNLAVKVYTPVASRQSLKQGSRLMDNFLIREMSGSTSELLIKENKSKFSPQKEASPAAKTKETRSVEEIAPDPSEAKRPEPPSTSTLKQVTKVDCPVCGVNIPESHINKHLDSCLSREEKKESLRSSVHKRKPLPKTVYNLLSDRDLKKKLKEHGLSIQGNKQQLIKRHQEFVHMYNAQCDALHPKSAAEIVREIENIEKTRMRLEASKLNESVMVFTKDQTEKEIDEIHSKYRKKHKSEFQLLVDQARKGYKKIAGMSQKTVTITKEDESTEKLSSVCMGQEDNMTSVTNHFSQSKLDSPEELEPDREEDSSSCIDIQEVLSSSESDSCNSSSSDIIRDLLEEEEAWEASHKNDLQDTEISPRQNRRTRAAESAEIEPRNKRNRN
Chain of RAD18/RAD6 complex (purified) (B2R503 whole entry, chain 2 of 2, further chain): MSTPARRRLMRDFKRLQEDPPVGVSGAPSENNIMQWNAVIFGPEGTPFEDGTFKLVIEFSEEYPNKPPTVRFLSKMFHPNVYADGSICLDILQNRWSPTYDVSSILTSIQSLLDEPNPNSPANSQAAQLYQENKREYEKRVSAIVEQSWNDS
T2 sequence (Q9NS91 whole entry, the tested form may be a part): as the sequence (Q9NS91 whole entry, chain 1 of 2) above

Regarding B1, in test [1], the “stoichiometry N” value is 1 MAGEA4 per RAD18/RAD6 complex. The binding result in test [2] was “binds”.
Turning to B2, the Kd with full-length MAGEA4 M161D turned out to be 1660 nM; in test [3], 25300 nM; in test [4] it was 405 nM.
